Reference: article doi:10.1101/2022.12.06.519310

Target: WDR5_(WD40), as used in the ITC (human)
Experiment: ITC

In the case of ARTKQTARKSTGGKA (modifications not checked) [unmodified H3 tail peptide of the ITC (H3K4unmodQ5unmod)], the Kd is reported as 20.2 µM.
